The target of this assay is T1, His-tagged OGT (human, UniProt O15294 1-1046).
T1 construct: OGT, human, full length; Vector pet28a; also called His-OGT; pet28a-OGT; source: E. coli, purified
T1 sequence (looked up): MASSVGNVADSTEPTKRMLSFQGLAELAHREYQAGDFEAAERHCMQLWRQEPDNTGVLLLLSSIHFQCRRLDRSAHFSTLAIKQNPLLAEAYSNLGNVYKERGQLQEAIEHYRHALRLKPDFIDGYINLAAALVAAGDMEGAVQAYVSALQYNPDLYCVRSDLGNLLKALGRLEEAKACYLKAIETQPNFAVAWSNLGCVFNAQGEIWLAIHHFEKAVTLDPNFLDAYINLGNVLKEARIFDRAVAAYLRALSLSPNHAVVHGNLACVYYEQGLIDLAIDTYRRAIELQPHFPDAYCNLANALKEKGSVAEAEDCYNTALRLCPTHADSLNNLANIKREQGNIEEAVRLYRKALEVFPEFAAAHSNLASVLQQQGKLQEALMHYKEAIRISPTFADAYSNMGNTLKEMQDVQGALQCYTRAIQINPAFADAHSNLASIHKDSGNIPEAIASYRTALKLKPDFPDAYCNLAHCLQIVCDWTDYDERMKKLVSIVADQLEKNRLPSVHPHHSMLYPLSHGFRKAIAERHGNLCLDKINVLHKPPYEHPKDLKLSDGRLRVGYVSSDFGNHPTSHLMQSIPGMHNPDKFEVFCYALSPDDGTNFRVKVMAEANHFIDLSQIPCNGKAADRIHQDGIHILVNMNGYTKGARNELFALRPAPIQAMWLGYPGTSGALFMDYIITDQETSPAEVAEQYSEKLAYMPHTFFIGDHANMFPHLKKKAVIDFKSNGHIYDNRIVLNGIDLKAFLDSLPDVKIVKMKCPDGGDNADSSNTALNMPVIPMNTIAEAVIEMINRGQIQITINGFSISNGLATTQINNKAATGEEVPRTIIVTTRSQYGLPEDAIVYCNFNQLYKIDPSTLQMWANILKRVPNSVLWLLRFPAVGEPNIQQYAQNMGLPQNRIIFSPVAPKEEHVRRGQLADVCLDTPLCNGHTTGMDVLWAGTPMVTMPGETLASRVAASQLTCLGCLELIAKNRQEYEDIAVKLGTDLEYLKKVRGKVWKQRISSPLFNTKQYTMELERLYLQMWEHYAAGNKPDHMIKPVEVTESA
In words: pull-down; GST pull-down: His-tagged OGT incubated with wild-type GST-tagged FOXP1 or its mutant lacking AA 556–610, glutathione beads, immunoblot. The settings on record: both partners purified.

B1: GST-tagged FOXP1 (wild type, full length) (natural protein, human, UniProt Q9H334 1-677, looked up)
chain: MMQESGTETKSNGSAIQNGSGGSNHLLECGGLREGRSNGETPAVDIGAADLAHAQQQQQQALQVARQLLLQQQQQQQVSGLKSPKRNDKQPALQVPVSVAMMTPQVITPQQMQQILQQQVLSPQQLQVLLQQQQALMLQQQQLQEFYKKQQEQLQLQLLQQQHAGKQPKEQQQVATQQLAFQQQLLQMQQLQQQHLLSLQRQGLLTIQPGQPALPLQPLAQGMIPTELQQLWKEVTSAHTAEETTGNNHSSLDLTTTCVSSSAPSKTSLIMNPHASTNGQLSVHTPKRESLSHEEHPHSHPLYGHGVCKWPGCEAVCEDFQSFLKHLNSEHALDDRSTAQCRVQMQVVQQLELQLAKDKERLQAMMTHLHVKSTEPKAAPQPLNLVSSVTLSKSASEASPQSLPHTPTTPTAPLTPVTQGPSVITTTSMHTVGPIRRRYSDKYNVPISSADIAQNQEFYKNAEVRPPFTYASLIRQAILESPEKQLTLNEIYNWFTRMFAYFRRNAATWKNAVRHNLSLHKCFVRVENVKGAVWTVDEVEFQKRRPQKISGNPSLIKNMQSSHAYCTPLNAALQASMAENSIPLYTTASMGNPTLGNLASAIREELNGAMEHTNSNESDSSPGRSPMQAVHPVHVKEEPLDPEEAEGPLSLVTTANHSPDFDHDRDYEDEPVNEDME
notes: FOXP1, human, full length; Vector pGEX-4T-1; also called GST-FOXP1; pGEX-4T-1-FOXP1; source: E. coli, purified
With B1, the binding result is on record as “binds”.
